Data on three molecules can be found in patent publication EP4670742A1, “ANTI-CD79B ANTIBODY DRUG CONJUGATES” (priority 2024, dated 2025).

Assay [1] concerns the target T1, Human CD79b (AA 29-159)-6-His (Homo sapiens, UniProt P40259).
T1 construct: 6-His (C)
T1 sequence (P40259 29-159): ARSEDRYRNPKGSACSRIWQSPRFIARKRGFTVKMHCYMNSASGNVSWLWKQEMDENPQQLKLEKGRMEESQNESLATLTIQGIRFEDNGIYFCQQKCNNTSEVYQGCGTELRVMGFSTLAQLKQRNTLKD
Nature of the assay: Binding affinity to recombinant human CD79b (ka, kd, KD). From the text:
The binding ligand used in the assay was recombinant human CD79b having the amino acid sequence of Ala29-Asp159 of human CD79b, which was fused with a 6-His tag at the C terminus. Table 3 provides the measured association rate (ka), dissociation rate (kd), and equilibrium dissociation constant (KD). Table 3: Binding Affinity

Assay [2] concerns DLBCL GCB CDX (OCI Ly19) Tumors. The assay is described as follows: In vivo growth inhibition of xenografted tumors. From the text:
Based on an endpoint of 1000 mm3.

The target in assay [3] is T2, Human CD79b (AA 29-159)-6-His (human, UniProt P40259 29-159).
T2 construct: range 29-159; No linker between CD79b and the tag is stated
T2 sequence: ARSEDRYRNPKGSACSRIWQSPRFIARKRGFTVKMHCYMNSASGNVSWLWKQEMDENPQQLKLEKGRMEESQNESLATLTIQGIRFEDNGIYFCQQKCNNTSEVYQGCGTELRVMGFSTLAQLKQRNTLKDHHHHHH
The assay is described as follows: kinetic binding assay, method not named; recombinant human CD79b (29-159)-6-His.

The Kd is the concentration at which binding is half-saturated. As to Polatuzumab vedotin-piiq, in assay [1] (association rate), the ka was 1.7e+07 M⁻¹ s⁻¹. In addition, in assay [1] (dissociation rate), the kd stood at 0.0087 s⁻¹. The Kd in assay [1] (equilibrium dissociation constant) worked out at 5 nM. Moreover, in assay [2] (FIG. 2, compared to vehicle controls, all dose levels tested), the “tumor growth inhibition and tumor growth delay” value is given as “statistically significant”. Further, in assay [2] (dose 3x, control Vehicle), the “CR (%)” value is “No CRs”, the “PR (%)” value came to 0% and the “TR (%)” value is 0%. For the same molecule, the “TGD (%)” value in assay [2] (dose 3x, control Vehicle, end of study) is reported as 90%. Further, the “CR (%)” value in assay [2] (dose 3x, control Vehicle, listed as polatuzumab vedotin-piiq) stood at 0%. The “TGI (%)” value in assay [2] (dose 3x, single bolus intraperitoneally on day zero, control Vehicle, day 10 post dosing) was found to be 84%.

What is called koff is the rate constant with which the complex falls apart. The term kon denotes a measure of how fast the partners come together. For Polatuzumab vedotin-piiq (antibody), in assay [3], the Kd is 5 nM, the koff is 0.0087 s⁻¹ and the kon worked out at 1.7e+07 M⁻¹ s⁻¹.

B1: ADC-1 (antibody, human IgG1, kappa, V domains shown)
VH: EVQLVESGGGLVQPGGSLRLPCAASGFTFYNYWITWIRQAPGKGLEWVANINQAGSEKSYLDAVKGRFTISRDNAKNSVYLQMNSLRVEDTAVYYCAGGFRAFDIWGQGTMVTVSS
VL: DFVLTQSPLSLSVTPGEPASISCRSSQSLLHSSGESYLDWFLQRPGQSPQVLIYLGSHRASGAPDRFSGSGSGTDFTLKISRVEAEDVGVYYCMQALQTPLTFGGGTRVEIKR
modifications: Top1i linker drug LD1 (formula III) linked via sulfhydryl groups of cysteine residues; n is 6 for the whole antibody (DAR = 6.05); conjugated positions and split between the chains not stated
notes: Antibody drug conjugate of Ab1 (IgG1, human kappa); also called anti-CD79b Top1i ADC; anti-CD79b ADC of formula (IV) with Ab1, n is 6
With B1, in assay [3], the Kd was 4 nM, the koff was found to be 0.00068 s⁻¹ and the kon is 170000 M⁻¹ s⁻¹.
